System: T1, GST-IκBβ (1-54)
T1 sequence: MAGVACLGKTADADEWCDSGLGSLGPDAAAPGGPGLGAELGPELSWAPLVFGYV

IKK signalsome (stimulus-inducible IκB kinase complex) immunopurified from TNFα-stimulated HeLa cells
phosphorylation of substrate (kinase assay): the kinase phosphorylated GST-IκBβ (1-54), albeit with lower affinity
